Drawing on PMC2771873 (2009), this text covers Kd for 1 molecule.

In this assay the target is T1, RyRP12 peptide (ryanodine receptor 1) RyRP12 (UniProt P21817, also: TAMRA label, position not given here).
T1 chain: KKAVWHKLLSKQ
Put plainly: fluorescence anisotropy. For orientation: Fluorescence polarisation rises when a labelled molecule tumbles more slowly, as on binding a larger partner.

Ends that are not written are not given here.

B1: S100A1 (protein)
chain: MGSELETAMETLINVFHAHSGKEGDKYKLSKKELKDLLQTELSSFLDVQKDADAVDKIMKELDENGDGEVDFQEFVVLVAALTVACNNFFWENS
The molecule B1 yielded a Kd of 139 nM.

By Kd is commonly meant the free concentration of one partner at which half of the binding sites on the other are occupied at equilibrium, for simple one-to-one binding.
